Measured values from US20260049134A1 (UNIVERSITY OF FLORIDA RESEARCH FOUNDATION, published 2026).

T1: PTPRG-Fc (ECD of human PTPRG, aa 20-736, fused to human Fc gamma 1) (human, UniProt P23470 20-736)
T1 construct: Made in-house in Expi293 cells; Used in ELISA and SPR; also called recombinant PTPRG-Fc; PTRPG; not shown: human IgG1 Fc (Fc gamma 1) after the hinge
T1 sequence: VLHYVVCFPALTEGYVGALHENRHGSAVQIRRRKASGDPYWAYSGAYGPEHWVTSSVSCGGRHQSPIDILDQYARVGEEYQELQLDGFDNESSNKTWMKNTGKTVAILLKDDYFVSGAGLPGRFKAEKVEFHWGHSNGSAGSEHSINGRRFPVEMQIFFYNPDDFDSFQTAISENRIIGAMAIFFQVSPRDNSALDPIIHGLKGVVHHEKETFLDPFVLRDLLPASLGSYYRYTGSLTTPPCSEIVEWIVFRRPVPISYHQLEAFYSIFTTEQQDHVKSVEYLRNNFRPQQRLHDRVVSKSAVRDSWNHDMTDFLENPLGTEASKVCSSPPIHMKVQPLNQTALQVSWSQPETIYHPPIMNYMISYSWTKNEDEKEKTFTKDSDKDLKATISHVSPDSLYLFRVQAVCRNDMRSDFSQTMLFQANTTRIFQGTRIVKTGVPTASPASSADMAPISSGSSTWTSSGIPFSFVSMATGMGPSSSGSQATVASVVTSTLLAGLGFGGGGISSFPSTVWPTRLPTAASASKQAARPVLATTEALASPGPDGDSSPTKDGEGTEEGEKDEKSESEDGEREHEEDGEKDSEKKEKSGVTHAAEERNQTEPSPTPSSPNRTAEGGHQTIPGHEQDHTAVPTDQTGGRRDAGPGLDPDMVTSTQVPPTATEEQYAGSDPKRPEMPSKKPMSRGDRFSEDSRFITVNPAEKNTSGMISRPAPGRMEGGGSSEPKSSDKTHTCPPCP

T2: HHLA2 (B7-H7)
T2 construct: coated protein in the ELISA; also called HHLA2-Fc (R&D Systems)
T2 chain: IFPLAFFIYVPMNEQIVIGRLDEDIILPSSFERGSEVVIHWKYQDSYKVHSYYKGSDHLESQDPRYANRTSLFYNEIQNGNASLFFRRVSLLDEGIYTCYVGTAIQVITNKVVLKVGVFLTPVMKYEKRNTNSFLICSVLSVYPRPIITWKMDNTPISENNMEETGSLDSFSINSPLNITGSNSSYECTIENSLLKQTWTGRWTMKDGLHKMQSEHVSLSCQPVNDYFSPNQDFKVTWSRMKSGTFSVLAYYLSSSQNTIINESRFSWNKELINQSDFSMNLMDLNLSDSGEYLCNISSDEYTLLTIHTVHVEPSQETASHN

T3: CADM1-His (Acro Biosystems) (human, UniProt Q9BY67 45-374)
T3 construct: Bought; also called CADM1/IGSF4A; not shown: His tag of the bought protein
T3 sequence: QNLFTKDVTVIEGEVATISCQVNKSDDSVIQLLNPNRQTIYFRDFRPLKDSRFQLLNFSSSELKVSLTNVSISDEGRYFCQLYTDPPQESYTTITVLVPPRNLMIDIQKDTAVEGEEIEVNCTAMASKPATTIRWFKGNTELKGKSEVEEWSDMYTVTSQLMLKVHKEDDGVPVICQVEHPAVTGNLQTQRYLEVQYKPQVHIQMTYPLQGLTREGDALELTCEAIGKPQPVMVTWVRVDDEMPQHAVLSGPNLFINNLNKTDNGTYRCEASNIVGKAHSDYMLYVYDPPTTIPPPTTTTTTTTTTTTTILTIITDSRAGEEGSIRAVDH

T4: IGSF11 (VSIG3)
T4 construct: coated protein in the ELISA; also called IGSF11-Fc (R&D Systems)
T4 chain: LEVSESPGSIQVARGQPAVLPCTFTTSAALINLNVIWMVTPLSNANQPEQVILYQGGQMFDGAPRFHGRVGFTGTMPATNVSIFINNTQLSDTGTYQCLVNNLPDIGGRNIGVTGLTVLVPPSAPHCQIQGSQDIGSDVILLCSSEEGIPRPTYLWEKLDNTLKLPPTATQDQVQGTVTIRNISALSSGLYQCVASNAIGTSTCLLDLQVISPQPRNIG

T5: ANXA1
T5 construct: coated protein in the ELISA; also called ANXA1-His (R&D Systems)
T5 chain: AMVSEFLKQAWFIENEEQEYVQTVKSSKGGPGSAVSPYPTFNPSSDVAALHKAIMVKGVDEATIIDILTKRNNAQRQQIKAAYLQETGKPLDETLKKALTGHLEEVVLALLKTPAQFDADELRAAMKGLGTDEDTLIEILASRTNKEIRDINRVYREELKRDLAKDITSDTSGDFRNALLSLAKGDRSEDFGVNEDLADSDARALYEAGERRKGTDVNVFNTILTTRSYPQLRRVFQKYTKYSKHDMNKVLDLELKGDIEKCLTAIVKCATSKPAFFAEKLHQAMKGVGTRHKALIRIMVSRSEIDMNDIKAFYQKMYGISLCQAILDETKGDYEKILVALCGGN

B1: TH9-0022 (antibody, human IgG1, kappa, L234A L235A, V domains shown)
VH: QSLEESGGRLVTPGTPLTLTCTVSGFSLSSYAMNWVRQAPGKGLEWIGIINSYGSTYYASWAKGRFTISKTSTTVDLKITSPTTEDTATYFCARVTYDSYGYGYAPYGMDLWGPGTLVTVSS
VL: LVMTQTPSSTSNAVGGTVTIKCQASQSIGNVLAWYQQKPGQPPKLLIYAASTLASGVPSRVGGSRSGTEYTLTISGVQREDAATYYCLGSDSDSDIAFGGGTELEILR
notes: also called TH9-022; negative control
B2: HW-42 chimeric rabbit-human IgG1 LA/LA/PG (antibody, V domains shown)
VH: QSVKESEGGLFKPADTLTLTCTVSGFSLSSNEISWVRQAPGEGLEYIGIIDTGGRAYYAVWARSRSTITRNTNLNTVTLKMTSLTAADTATYFCARGGVDTEWYAFSSWGPGTLVTVPS
VL: SFVLTQPASVQVNLGQTVSLTCTADTLSRRYASWYQQKPGQAPVLLIFRDTSRPSGVPDRFSGSSSGDTATLTISGAQAGDEADYYCATSDGSGSNYQYVFGGGTQLTVTG
notes: Fc-silenced (L234A/L235A/P329G) IgG1, lambda; Alexa Fluor 647-labeled in single-step flow cytometry; Cluster C-1
B3: HW-70 chimeric rabbit-human IgG1 LA/LA/PG (antibody, V domains shown)
VH: QSLEESGGRLVTPGTPLTLTCTVSGFSLSSNAMSWVRQAPGKGLEWIGTIDGYGYTYYASWAKGRFTVSKTSTTVDLKITSPTTEDTATYFCAREIYLGSNFWGPGTLVTISS
VL: SFVLTQPASVQVNLGQTVSLTCTADTLSRRYASWYQQKPGQAPVLLIYRDTSRPSGVPDRFSGSSSGNTATLTISGAQAGDEADYYCATADGSGSSYQFVFGGGTQLTVTG
notes: as for B2
B4: HW-25 chimeric rabbit-human IgG1 LA/LA/PG (antibody, V domains shown)
VH: QSLEESGGRLVTPGTPLTLTCTVSGFSLSSYAMGWVRQAPGKGLEWIGIIDSRGSTYYATWAKGRFTISKTSTTVDLKITSPTTEDTATYFCAREDSYYYDSFNLWGPGTLVTVSS
VL: SFVLTQPASVQVNLGQTVSLTCTADTLSRRYASWYQQKPGQAPVLLIYRDTSRPSGVPDRFSGSSSGNTATLTISGAQAGDEADYYCATSDGSGSSYQCVFGGGTQLTVTG
notes: as for B2
B5: HW-1 chimeric rabbit-human IgG1 LA/LA/PG (antibody, V domains shown)
VH: QSLEESGGGLFKPTDTLTLTCTASGFSLGSSYAISWVRQAPGKELEWIGTIDSGRAYYARWAKSRSTITRNTNENTVTLKMTSLTAADTATYFCARDLIPTYSQDIWGPGTLVTISS
VL: SFVLTQPASVQVNLGQTVSLTCTADTLSRRYASWYQQKPGQAPVLLIYRDTSRPSGVPDRFSGSSSGNTATLTISGAQAGDEADYYCATSDGSGNSYQYVFGGGTQLTVTS
notes: Fc-silenced (L234A/L235A/P329G) IgG1, lambda; Alexa Fluor 647-labeled in single-step flow cytometry; Prototype of cluster C-1
B6: HW-17 chimeric rabbit-human IgG1 LA/LA/PG (antibody, V domains shown)
VH: QSLGESRGRLVTPDETLTLTCTVSGIDLSSNAMSWVRQAPGEGLEWIGTINTGGRAYYASWAKGRFTISRTSTTVDLKMTSLTTEDTATYFCARERYSDGRAYDIWGPGTLVTISS
VL: SFVLTQPASVQVNLGQTVSLTCTADTLSRRYASWYQQKPGQAPVLLIYTDSNRPSGIPDRFSGSSSGNTATLTISGAQAGDEADYYCATDDGSGSIYQYVFGGGTQLTVTG
notes: as for B2
B7: HW-28 chimeric rabbit-human IgG1 LA/LA/PG (antibody, V domains shown)
VH: QKQLVESGGRLVTPGTPLTLTCTASGFSLSSNAMSWVRQAPGEGLQWIGTISSGGSTYYASWAKGRFTISKTSTTVTLKMTSLTTEDTATYFCARGADLHRLWGPGTLVTVSS
VL: SFVLTQPASVQVNLGQTVSLTCTGKPLSRSFASWYQQKPGQAPVLVIYRDTSRPSGVPDRFSGSSSGNTATLTISGAQAGDEADYYCATSDGSGSSYQYVFGGGTQLTVTG
notes: Fc-silenced (L234A/L235A/P329G) IgG1, lambda; Alexa Fluor 647-labeled in single-step flow cytometry; Cluster C-45
B8: HW-16 chimeric rabbit-human IgG1 LA/LA/PG (antibody, V domains shown)
VH: QSLEESGGRLVTPGTPLTLTCTASGFSLSSYAMSWVRQAPGKGLEWIGTMPTGGGTYYASWAKGRFTISKTSTTVDLQITSPTTEDTATYFCAKHWNIWGPGTLVTISS
VL: DIVLTQTPSSTSTAVGDTVTINCRASQSIGRNLAWFQQKPGQPPKLLIYRASNLASGVPSRFKGSGSRTQFTLTISGVQREDAATYYCLGSYSSSDTAFGGGTELEILR
notes: Fc-silenced (L234A/L235A/P329G) IgG1, kappa; Alexa Fluor 647-labeled in single-step flow cytometry; Cluster C-45

What was measured:
[1] = biological target: T1, PTPRG-Fc (ECD of human PTPRG, aa …); test: ELISA on coated PTPRG-Fc, 150 ng IgG1; None 0.117
Method: (§1) Recombinant purified ECDs (50-150 ng) of each putative target protein were coated, incubated with 150 ng of the indicated primary antibody, and binding was detected using a peroxidase-conjugated anti-human Fab secondary antibody. Heatmap represents averages of technical triplicates. (8B) Target validation via siRNA knockdown. H929 cells were transfected with siRNA pools targeting the putative antibody targets ICAM1, CADM1, and PTPRG. Cells were then subjected to cognate IgG binding analysis via flow cytometry. (NT, non-targeting siRNA).
(§2) ELISA ELISA was conducted as described previously. Briefly, 50-150 ng of antigen was coated overnight in half-area 96-well plates at 4° C., blocked with 3% BSA at 37° C. for 1 h, and 150 ng of chimeric rabbit/human IgG1 was added, incubating for 2 h at 37° C. […] After incubating at 37° C. for 15 min-1 h (depending on intensity of controls), data were acquired using a SpectraMax M5 plate reader (Molecular Devices).

HHLA2 (B7-H7) = biological target: T2, HHLA2 (B7-H7); test: ELISA on coated HHLA2-Fc, 150 ng IgG1; None 0.087
Method: as §1, §2

[2] = biological target: T3, CADM1-His (Acro Biosystems); test: ELISA on coated CADM1-His, 150 ng IgG1; None 0.059
Method: as §1, §2

IGSF11 (VSIG3) [3] = biological target: T4, IGSF11 (VSIG3); test: ELISA on coated IGSF11-Fc, 150 ng IgG1; None 0.090
Method: as §1, §2

IGSF11 (VSIG3) [4] = biological target: T4, IGSF11 (VSIG3); test: ELISA on coated IGSF11-Fc
Method: as §1, §2

ANXA1 = biological target: T5, ANXA1; test: ELISA on coated ANXA1-His, 150 ng IgG1; None 0.098
Method: as §1, §2

Row | Binder | ELISA Absorbance (405 nm-570 nm) [1] | ELISA Absorbance (405 nm-570 nm) (HHLA2 (B7-H7)) | ELISA Absorbance (405 nm-570 nm) [2] | ELISA Absorbance (405 nm-570 nm) (IGSF11 (VSIG3) [3]) | binding result (IGSF11 (VSIG3) [4]) | ELISA Absorbance (405 nm-570 nm) (ANXA1)
1 | B1 | 0.106 | 0.086 | 0.055 | 0.08 | no binding (tested: 150 ng IgG1 per well) | 0.09
2 | B2 | 0.341 | 0.097 | 0.061 | 0.088 | no binding (tested: 150 ng IgG1 per well) | 0.103
3 | B3 | 0.29 | 0.088 | 0.053 | 0.085 | no binding (tested: 150 ng IgG1 per well) | 0.102
4 | B4 | 0.784 | 0.066 | 0.045 | 0.07 | no binding (tested: 150 ng IgG1 per well) | 0.065
5 | B5 | 0.756 | 0.075 | 0.053 | 0.074 | no binding (tested: 150 ng IgG1 per well) | 0.085
6 | B6 | 0.756 | 0.076 | 0.048 | 0.094 | no binding (tested: 150 ng IgG1 per well) | 0.073
7 | B7 | 0.121 | 0.122 |  | 0.11 |  | 0.153
8 | B8 |  | 0.092 | 0.067 | 0.087 | no binding (tested: 150 ng IgG1 per well) | 0.111
